In US20240270840A1 (NECTIN THERAPEUTICS, published 2024):

Columns and labels:
Human CD112R (PVRIG) [1] = target: T1, Human CD112R (PVRIG) (human, UniProt Q6DKI7 41-171, limits assumed); assay: SPR (Biacore); human CD112R as ligand, antibody as analyte; * limit of Biacore instrument
T1 sequence (looked up): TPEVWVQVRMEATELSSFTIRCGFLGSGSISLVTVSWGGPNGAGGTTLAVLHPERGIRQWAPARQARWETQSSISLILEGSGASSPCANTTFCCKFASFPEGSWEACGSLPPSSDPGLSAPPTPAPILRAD

[2] = target: Cynomolgus monkey (Macaca fascicularis) CD112R expressed on cells (cynomolgus monkey (Macaca fascicularis)); assay: flow cytometry on 293T cells expressing cynomolgus CD112R; 99-0.05 nM, three-fold dilutions
[3] = target: Cynomolgus monkey (Macaca fascicularis) CD112R expressed on cells (cynomolgus monkey (Macaca fascicularis)); assay: flow cytometry on 293T cells; EC50 on cynomolgus CD112R against EC50 on human CD112R
Human CD112R (PVRIG) [4] = target: T1, Human CD112R (PVRIG); assay: SPR (Biacore); purified full antibody
[5] = target: T2, Human CD112R expressed on cells (human, UniProt Q6DKI7 1-326); assay: FACS, chimeric mAb 99-0.4 nM in three-fold dilutions on HEK 293T cells overexpressing CD112R, anti-human-APC 1:200
T2 construct: whole, on cells; also called HuCD112R; hCD112R
T2 sequence (looked up): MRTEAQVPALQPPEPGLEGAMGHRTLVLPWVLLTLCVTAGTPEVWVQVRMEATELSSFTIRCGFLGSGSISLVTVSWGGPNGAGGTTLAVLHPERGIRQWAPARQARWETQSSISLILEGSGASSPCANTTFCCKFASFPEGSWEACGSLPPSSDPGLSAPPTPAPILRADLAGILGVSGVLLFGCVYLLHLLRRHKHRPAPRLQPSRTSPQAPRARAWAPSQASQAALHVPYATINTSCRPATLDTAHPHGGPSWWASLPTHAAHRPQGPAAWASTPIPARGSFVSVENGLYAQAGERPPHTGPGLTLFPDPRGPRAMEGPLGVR
Description: For detection, anti-human-APC antibody (Ab) was used at 1:200 dilution, and cell binding was analyzed by FACS. FIG. 3C—8866 cells ([…]) overexpressing human Nectin-2 were incubated with 10 μg/ml of CD112R-Fc in the presence of isotype control Ab, or with the indicated clones at 4 μg/ml. Bound CD112R-Fc was detected by anti-mouse-Dy-647 1:250 dilution and analyzed by FACS. The blocking of CD112R binding exceeded 95% by all the variants.
Binding was analyzed by FACS and used for calculation of EC-50 values. […] The N31S variant, engineered to remove an N-Linked glycosylation motif at the CDR1 of the heavy chain, had improved (sub-nM) binding to human CD112R in this cell-based assay.

Human CD112R (PVRIG) [6] = target: T1, Human CD112R (PVRIG); assay: SPR (Biacore); human CD112R as ligand, antibody as analyte
[7] = target: T2, Human CD112R expressed on cells; assay: flow cytometry on 293T cells expressing human CD112R; 99-0.05 nM, three-fold dilutions
Description: The humanized mAbs were tested for binding of endogenous and overexpressed human and cynomolgus CD112R.

Human CD112R (PVRIG) [8] = target: T1, Human CD112R (PVRIG); assay: SPR (Biacore), against the reference Ab
Human CD112R (PVRIG) [9] = target: T1, Human CD112R (PVRIG); assay: affinity of glycosylation-motif variants (Table 2; method not named there)

- Kd (Human CD112R (PVRIG) [1]): 0.96 pM
- EC50 [2]: 970 pM
- Ratio Cyno/Hu (EC50) [3]: 1.75
- Kd (Human CD112R (PVRIG) [4]): 145 pM
- Relative Kd (against VH0K0 N28T) (Human CD112R (PVRIG) [4]): 1.16
- koff (Human CD112R (PVRIG) [4]): 3.05e-05 s⁻¹
- kon (Human CD112R (PVRIG) [4]): 210000 M⁻¹ s⁻¹
- EC50 [5]: 700 pM
- koff (Human CD112R (PVRIG) [6]): 3.26e-07 s⁻¹
- kon (Human CD112R (PVRIG) [6]): 340000 M⁻¹ s⁻¹
- EC50 [7]: 550 pM
- fold more potent in binding CD112R than the reference Ab (Human CD112R (PVRIG) [8]): 3 to 30 fold
- Kd (Human CD112R (PVRIG) [9]): 167 pM
- Relative Kd (against VH0Vk0) (Human CD112R (PVRIG) [9]): 1
B1: chimeric clone-13(N31S)-hIgG1 (VH0K0) (antibody, V domains shown)
VH: QVQLQQPGAELVKPGTSVKLSCKASGYNFTSYWINWVKLRPGQGLEWIGDIYPGSYIPNYNEKFKNKATLTVDTSSSTAYMQLTSLASEDSALYYCAGGYFDVWGAGTTVTVSS
VL: DIVMTQSPSSLSVSAGEKVTMSCKSSQSLLSSGNQKNYLAWYQQKPGQPPKLLIYGASTRESGVPDRFTGSGSGTDFTLTISSVQAEDLAVYYCQNDHSYPYTFGGGTKLEIK
notes: Chimeric, human IgG1; Light chain with N31S (deamidation removal), also denoted N27dS by Kabat numbering; also called clone N31S; VH0Vk0
